The source of these data is patent US20160168253.

The data set has as its target T1, peptide substrate MCA-RPPGFSAFK(Dnp)-OH (R&D Systems Cat. No. ES005).
T1 chain: RPPGFSAFK

B1: Neprilysin (R&D Systems, Cat. No 1182-ZNC) (protein)
chain: YDDGICKSSDCIKSAARLIQNMDATTEPCTDFFKYACGGWLKRNVIPETSSRYGNFDILRDELEVVLKDVLQEPKTEDIVAVQKAKALYRSCINESAIDSRGGEPLLKLLPDIYGWPVATENWEQKYGASWTAEKAIAQLNSKYGKKVLINLFVGTDDKNSVNHVIHIDQPRLGLPSRDYYECTGIYKEACTAYVDFMISVARLIRQEERLPIDENQLALEMNKVMELEKEIANATAKPEDRNDPMLLYNKMTLAQIQNNFSLEINGKPFSWLNFTNEIMSTVNISITNEEDVVVYAPEYLTKLKPILTKYSARDLQNLMSWRFIMDLVSSLSRTYKESRNAFRKALYGTTSETATWRRCANYVNGNMENAVGRLYVEAAFAGESKHVVEDLIAQIREVFIQTLDDLTWMDAETKKRAEEKALAIKERIGYPDDIVSNDNKLNNEYLELNYKEDEYFENIIQNLKFSQSKQLKKLREKVDKDEWISGAAVVNAFYSSGRNQIVFPAGILQPPFFSAQQSNSLNYGGIGMVIGHEITHGFDDNGRNFNKDGDLVDWWTQQSASNFKEQSQCMVYQYGNFSWDLAGGQHLNGINTLGENIADNGGLGQAYRAYQNYIKKNGEEKLLPGLDLNHKQLFFLNFAQVWCGTYRPEYAVNSIKTDVHSPGNFRIIGTLQNSAEFSEAFHCRKNSYMNPEKKCRVW
Consider B1, for which the Km [µM] (apparent Km, hydrolysis of fluorogenic peptide substrate) turned out to be 3.2 µM and the Vmax is 2930 s⁻¹.
